Results reported in the supplement of paper PMC9112550, “Optimization of the antimicrobial peptide Bac7 by deep mutational scanning” (BMC Biology, 2022).
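Also: peptides expressed intracellularly from a pBAD plasmid library in pooled LB shake-flask culture, induced with 0.3% L-arabinose, DNA abundance read by NGS, three biological replicates, DESeq2 with apeglm shrinkage.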

The sequences below were run on Escherichia coli TOP10 (assay: shrunken log2 fold change of peptide-encoding DNA abundance (4.5 h post-induction vs induction); higher = less antimicrobial activity (less host growth inhibition)). Settings: time post-induction: 4.5 h; library: site-saturation at positions 5, 18, 19, 20.
RRIRDRPPRLPRPRPRPKFCPRP was tested, and the “shrunken log2 fold change” value was -0.0512. For RRIRIRPPRLPRPRPRPSWFPRP, the “shrunken log2 fold change” value was -0.529. In the case of RRIRGRPPRLPRPRPRPAQWPRP, the “shrunken log2 fold change” value is reported as 0.933. RRIRYRPPRLPRPRPRPEDYPRP was tested, and the “shrunken log2 fold change” value was -0.00116. For RRIRMRPPRLPRPRPRPRQIPRP, the “shrunken log2 fold change” value was 1.19. For RRIRQRPPRLPRPRPRPTISPRP, the “shrunken log2 fold change” value was -0.379. In the case of RRIRPRPPRLPRPRPRPRSFPRP, the “shrunken log2 fold change” value is reported as 0.0582. With RRIRFRPPRLPRPRPRPSQTPRP the “shrunken log2 fold change” value was -0.304. With RRIRRRPPRLPRPRPRPRLKPRP the “shrunken log2 fold change” value was 0.231. RRIRARPPRLPRPRPRPYRKPRP was tested, and the “shrunken log2 fold change” value was -0.502. With RRIRFRPPRLPRPRPRPENNPRP the “shrunken log2 fold change” value was -0.285. RRIRMRPPRLPRPRPRPNHRPRP was tested, and the “shrunken log2 fold change” value was -0.113. In the case of RRIRKRPPRLPRPRPRPIKIPRP, the “shrunken log2 fold change” value is reported as -0.149. In the case of RRIRFRPPRLPRPRPRPQKTPRP, the “shrunken log2 fold change” value is reported as 0.00435. RRIRFRPPRLPRPRPRPMLKPRP was tested, and the “shrunken log2 fold change” value was -0.527. In the case of RRIRRRPPRLPRPRPRPNRAPRP, the “shrunken log2 fold change” value is reported as 3.1. With RRIRIRPPRLPRPRPRPAASPRP the “shrunken log2 fold change” value was 0.241. RRIRWRPPRLPRPRPRPLFSPRP was tested, and the “shrunken log2 fold change” value was 0.0976. With RRIRLRPPRLPRPRPRPRTEPRP the “shrunken log2 fold change” value was 0.0352. With RRIRHRPPRLPRPRPRPNPWPRP the “shrunken log2 fold change” value was -0.248. For RRIRCRPPRLPRPRPRPVFGPRP, the “shrunken log2 fold change” value was -0.0365. RRIRARPPRLPRPRPRPNWMPRP was tested, and the “shrunken log2 fold change” value was 0.0981. In the case of RRIRQRPPRLPRPRPRPAKDPRP, the “shrunken log2 fold change” value is reported as 0.0171. For RRIRSRPPRLPRPRPRPVNHPRP, the “shrunken log2 fold change” value was -0.462. RRIRMRPPRLPRPRPRPPVQPRP was tested, and the “shrunken log2 fold change” value was 0.378. With RRIRDRPPRLPRPRPRPQIRPRP the “shrunken log2 fold change” value was -0.222. For RRIRGRPPRLPRPRPRPGFFPRP, the “shrunken log2 fold change” value was 0.542. In the case of RRIRHRPPRLPRPRPRPTNFPRP, the “shrunken log2 fold change” value is reported as -0.398. RRIRYRPPRLPRPRPRPQCDPRP was tested, and the “shrunken log2 fold change” value was -0.529. In the case of RRIRQRPPRLPRPRPRPTLWPRP, the “shrunken log2 fold change” value is reported as 0.0794. In the case of RRIRNRPPRLPRPRPRPVQKPRP, the “shrunken log2 fold change” value is reported as -0.0122. For RRIRARPPRLPRPRPRPFYYPRP, the “shrunken log2 fold change” value was -0.485. RRIRQRPPRLPRPRPRPGTWPRP was tested, and the “shrunken log2 fold change” value was 0.0676. RRIRMRPPRLPRPRPRPGAFPRP was tested, and the “shrunken log2 fold change” value was 0.611. With RRIRIRPPRLPRPRPRPVRYPRP the “shrunken log2 fold change” value was 0.326. With RRIRARPPRLPRPRPRPLMCPRP the “shrunken log2 fold change” value was 0.0392. With RRIRARPPRLPRPRPRPCCAPRP the “shrunken log2 fold change” value was 0.774. In the case of RRIRQRPPRLPRPRPRPWNYPRP, the “shrunken log2 fold change” value is reported as -0.201. With RRIRERPPRLPRPRPRPEIDPRP the “shrunken log2 fold change” value was -0.00826. RRIRVRPPRLPRPRPRPKGMPRP was tested, and the “shrunken log2 fold change” value was 0.109. RRIRERPPRLPRPRPRPWGKPRP was tested, and the “shrunken log2 fold change” value was -0.042. RRIRWRPPRLPRPRPRPSKDPRP was tested, and the “shrunken log2 fold change” value was -0.412. In the case of RRIRTRPPRLPRPRPRPFMHPRP, the “shrunken log2 fold change” value is reported as -0.547. For RRIRTRPPRLPRPRPRPCGDPRP, the “shrunken log2 fold change” value was 0.176. For RRIRLRPPRLPRPRPRPYLCPRP, the “shrunken log2 fold change” value was -0.0953. In the case of RRIRYRPPRLPRPRPRPAKYPRP, the “shrunken log2 fold change” value is reported as -0.142. With RRIRDRPPRLPRPRPRPYIYPRP the “shrunken log2 fold change” value was -0.184. RRIRVRPPRLPRPRPRPAMIPRP was tested, and the “shrunken log2 fold change” value was -0.07. For RRIRERPPRLPRPRPRPAEFPRP, the “shrunken log2 fold change” value was 0.00307. RRIRSRPPRLPRPRPRPPAHPRP was tested, and the “shrunken log2 fold change” value was 0.303. For RRIRLRPPRLPRPRPRPRQYPRP, the “shrunken log2 fold change” value was -0.075. In the case of RRIRGRPPRLPRPRPRPPQSPRP, the “shrunken log2 fold change” value is reported as 1.27. For RRIRWRPPRLPRPRPRPAMWPRP, the “shrunken log2 fold change” value was 0.433. For RRIRVRPPRLPRPRPRPRRCPRP, the “shrunken log2 fold change” value was -0.0137. With RRIRARPPRLPRPRPRPSYWPRP the “shrunken log2 fold change” value was -0.184. For RRIRYRPPRLPRPRPRPKLMPRP, the “shrunken log2 fold change” value was -0.115. With RRIRWRPPRLPRPRPRPTAQPRP the “shrunken log2 fold change” value was 0.894. With RRIRRRPPRLPRPRPRPPFIPRP the “shrunken log2 fold change” value was 0.299. RRIRRRPPRLPRPRPRPIFPPRP was tested, and the “shrunken log2 fold change” value was 0.69. RRIRHRPPRLPRPRPRPYDCPRP was tested, and the “shrunken log2 fold change” value was -0.0596. For RRIRTRPPRLPRPRPRPWAGPRP, the “shrunken log2 fold change” value was -0.0234. In the case of RRIRIRPPRLPRPRPRPLITPRP, the “shrunken log2 fold change” value is reported as -0.71. In the case of RRIRRRPPRLPRPRPRPAWKPRP, the “shrunken log2 fold change” value is reported as 0.2. With RRIRVRPPRLPRPRPRPIWWPRP the “shrunken log2 fold change” value was 1.44. For RRIRTRPPRLPRPRPRPQVRPRP, the “shrunken log2 fold change” value was 0.0794. In the case of RRIRKRPPRLPRPRPRPLYYPRP, the “shrunken log2 fold change” value is reported as -0.458. RRIRSRPPRLPRPRPRPHGTPRP was tested, and the “shrunken log2 fold change” value was -0.161. In the case of RRIRDRPPRLPRPRPRPRPQPRP, the “shrunken log2 fold change” value is reported as 1.8. RRIRRRPPRLPRPRPRPWNTPRP was tested, and the “shrunken log2 fold change” value was -0.214. With RRIRVRPPRLPRPRPRPNHCPRP the “shrunken log2 fold change” value was -0.181. RRIRSRPPRLPRPRPRPLDAPRP was tested, and the “shrunken log2 fold change” value was 0.259. With RRIRQRPPRLPRPRPRPFNIPRP the “shrunken log2 fold change” value was 0.0348. In the case of RRIRRRPPRLPRPRPRPFSFPRP, the “shrunken log2 fold change” value is reported as -0.0665. For RRIRTRPPRLPRPRPRPSFKPRP, the “shrunken log2 fold change” value was -0.465. RRIRTRPPRLPRPRPRPGKQPRP was tested, and the “shrunken log2 fold change” value was -0.184.
